Test results published in patent US20240294650A1 (Alector, published 2024).

T1: recombinant cynomolgus MerTK extracellular domain (cynomolgus, UniProt Q12866 21-505 (human entry))
T1 construct: also called cyno MerTK ECD; not shown: polyHis or TEVS/Thrombin/murine IgG2a-Fc tag
T1 chain: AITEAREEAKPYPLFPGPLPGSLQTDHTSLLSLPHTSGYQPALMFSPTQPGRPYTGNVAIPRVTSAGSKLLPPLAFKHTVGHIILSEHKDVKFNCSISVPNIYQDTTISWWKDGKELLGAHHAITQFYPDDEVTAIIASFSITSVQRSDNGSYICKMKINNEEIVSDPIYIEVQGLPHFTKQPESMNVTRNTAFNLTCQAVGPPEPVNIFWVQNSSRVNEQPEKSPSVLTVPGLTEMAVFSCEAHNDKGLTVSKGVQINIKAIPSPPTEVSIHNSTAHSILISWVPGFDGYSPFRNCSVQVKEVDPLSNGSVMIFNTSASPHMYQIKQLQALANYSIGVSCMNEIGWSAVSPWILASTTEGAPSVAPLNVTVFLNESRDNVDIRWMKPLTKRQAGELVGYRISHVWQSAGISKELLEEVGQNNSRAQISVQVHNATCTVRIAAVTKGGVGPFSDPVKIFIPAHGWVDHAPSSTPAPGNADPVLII

T2: human MerTK (human, UniProt Q12866 21-999)
T2 construct: endogenous receptor on cells; also called human MerTK endogenously expressed on SK-MEL-5 cells; MerTK on human macrophages
T2 sequence: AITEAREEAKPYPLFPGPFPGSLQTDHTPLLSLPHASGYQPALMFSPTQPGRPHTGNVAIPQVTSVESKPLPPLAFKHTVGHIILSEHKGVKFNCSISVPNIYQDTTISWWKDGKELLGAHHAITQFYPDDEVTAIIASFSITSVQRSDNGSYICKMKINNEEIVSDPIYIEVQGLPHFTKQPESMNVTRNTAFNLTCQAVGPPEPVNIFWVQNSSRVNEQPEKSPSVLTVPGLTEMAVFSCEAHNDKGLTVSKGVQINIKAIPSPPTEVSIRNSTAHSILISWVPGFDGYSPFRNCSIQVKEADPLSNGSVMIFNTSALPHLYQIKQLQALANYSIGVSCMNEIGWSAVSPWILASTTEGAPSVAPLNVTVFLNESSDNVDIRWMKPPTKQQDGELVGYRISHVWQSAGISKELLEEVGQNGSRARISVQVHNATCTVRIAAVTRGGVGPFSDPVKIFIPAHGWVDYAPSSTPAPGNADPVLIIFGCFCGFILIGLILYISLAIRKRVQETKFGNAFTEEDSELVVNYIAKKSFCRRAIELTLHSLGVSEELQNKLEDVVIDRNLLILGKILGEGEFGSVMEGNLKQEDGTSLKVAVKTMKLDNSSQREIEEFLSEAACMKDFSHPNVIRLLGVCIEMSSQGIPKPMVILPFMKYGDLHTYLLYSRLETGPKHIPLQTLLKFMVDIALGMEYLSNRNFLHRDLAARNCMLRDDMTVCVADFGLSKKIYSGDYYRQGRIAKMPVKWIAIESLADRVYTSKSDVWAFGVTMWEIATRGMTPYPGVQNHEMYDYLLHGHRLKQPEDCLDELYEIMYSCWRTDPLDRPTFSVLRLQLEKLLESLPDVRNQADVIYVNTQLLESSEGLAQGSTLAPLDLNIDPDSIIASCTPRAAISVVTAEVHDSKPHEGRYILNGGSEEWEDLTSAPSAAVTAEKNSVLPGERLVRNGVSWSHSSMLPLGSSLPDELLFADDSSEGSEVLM

B1: MTK-225 (antibody, human IgG1, V domains shown)
VH: EVQLQQSGPELVKPGASVKIFCKASGYTFTAYNMDWVKQSHGKSLEWIGDINPNNGGTIYNQKFKGKATLTVDKSSSTAYMELRSLTSEDTAVYYCARRRRYGNTYYWYFDVWGTGTTVTVSS
VL: DIQMTQSPASLSVSVGETVTITCRASENIYSSLAWYQQKQGKSPQLLVYAATNLADGVPSRFSGSGSGTQFYLKINGLQSEDFGSYYCQHFWGTSYTFGGGTKLEIK
B2: MTK-215 (antibody, human IgG1, V domains shown)
VH: EVQLVESGGGLVKPGGSLKLSCAASGFIFSDYGMHWVRQAPEKGLEWVAYISSGSSTIYYGDTVKGRFTISRDNAKNTLFLQMTSLRSEDTAMYYCAKGGRYGAMDYWGHGTSVTVSS
VL: DIVLTQSPATLSVTPGDSVSLSCRASQSISNNLHWYQQKSHESPRLLIKNPSQSISGIPSRFGARGSGTDFTLIINSVETEDLGVYFCQQSNSWPFTFGSGTKLEIK
B3: MTK-208 (antibody, human IgG1, V domains shown)
VH: QVQLQQPGAELVVPGASVRLSCKASGYTFINYWMHWVKQRPGQGLEWIGEIDPSDSYANYNQKFKDKSTLSLDKSSSTAYMQLSSLTSEDSAVYYCARCDYYGRLDYWGQGTTLTVSS
VL: QVVLTQSPAIMSASPGEKVTITCSASSSVSYMLWFQQKPGTSPKLWIYSTSNLASGVPARFSGSGSGTSYSLTISRLEAEDAATYYCQQRSSYPPITFGAGTKLELK
B4: MTK-231 (antibody, human IgG1, V domains shown)
VH: DVQLQESGPGLVKPSQSLSLTCSVTGYSITSGYYWNWIRQFPGNKLEWMGYISYDGTYNYHPSLKNRISITRDTSKNQFFLTLNSVTTEDTATFYCTRGGGYWGQGTSVTVSS
VL: DVVMTQTPLSLPVSLGDQASISCRSSQSLVHSDGNTYLHWYLQKPGQSPKLLIYKVSNRFSGVPDRFSGSGSGTDFTLKISRLEAEDLGIYFCSQTTHIPLTFGSGTKLEIK
B5: MTK-221 (antibody, human IgG1, V domains shown)
VH: QVTLKESGPGMLQSSQTLSLTCSFSGFSLSTSGMGVSWIRQPSGKGLEWLAHIYWDDDKRYNTSLQSRLTISKDTSRNQVFLKITSVDTADTATYFCGRLGAYSAFPYYFDYWGQGTTLTVSS
VL: DIQMTQSPSSLSASLGGKVTITCKASQDIHKHIAWYQHKPGKGPRLLIHYTSTLQPGIPSRFSGSGSGRDYSFSISNLEPEDLATYYCLQYDNLWTFGGGTKLEIK

Molecular target: T1, recombinant cynomolgus MerTK …
Test: SPR Carterra LSA
Procedure: Binding kinetics of anti-MerTK IgG1 antibodies of the present disclosure to human, cyno, and murine MerTK were evaluated using a Carterra LSA instrument (Carterra, Salt Lake City, UT). […] A HC200M sensor chip (Carterra) was activated using the single channel flow cell with a 7-minute injection of a 1:1:1 mixture of 100 mM MES pH 5.5, 100 mM sulfo-NHS, 400 mM EDC (all reconstituted in MES pH 5.5; 100 μl of each mixed in vial immediately before running assay). After switching to the multi-channel array flow cell, the antibodies were injected over the activated chip in three 96-spot arrays for 10 minutes each. The remaining unconjugated active groups on the chip were then blocked by injecting 1M Ethanolamine pH 8.5 (Carterra) for 7 minutes using the single channel flow cell. The resulting sensor chip contained three spots for each antibody, at three different densities. Two independent experiments were performed as follows, resulting in an N of between one and six determinations for each antibody. Spots that yielded less than 25 RU of analyte binding were excluded from further analysis.
After priming with running buffer (HBS-TE, Carterra) with 0.5 mg/ml BSA (Sigma), the immobilized anti-MerTK antibodies were tested for their ability to bind to several forms of recombinant MerTK extracellular domain, including human, cynomolgus, and mouse orthologs as described above. Estimates of affinity were generated by injecting each analyte over the entire antibody array using the single channel flow cell. MerTK analytes were diluted with running buffer, in a series of six, three-fold serial dilutions starting from 1 μM for human and cynomolgus MerTK, and 600 nM for mouse MerTK. Analytes were injected for 5 minutes, and dissociation was followed for 10 minutes. After each analyte injection, antibodies were regenerated with either Protein A/G Elution Buffer (Thermo) with 1M NaCl (Teknova), or with 10 mM Glycine pH 2.5. Three buffer blanks were run between each series (one species per series). Data were processed and analyzed using NextGenKIT high-throughput kinetics analysis software (Carterra).

Ratio of KD for Cynomolgus vs Human MerTK [ratio]	Binder
1.5	B1
4.3	B2
1.8	B3
1.8	B4
1.3	B5

molecular target: T2, human MerTK; test: FACS, SK-MEL-5 cells, 10 ug/ml
Procedure: To determine whether recombinant anti-human MerTK antibodies of the present disclosure bind to human MerTK endogenously expressed on SK-MEL-5 cells and CHO cells overexpressing mouse MerTK (CHO-muMerTK OE cells), as compared to A375 and parental CHO cells as negative controls, the following experiments were performed. SK-MEL-5 cells, A375 cells, CHO-muMerTK OE cells, and CHO parental cells were plated at 100,000 cells/well. Anti-MerTK antibodies were added to the cells at 10 μg/ml. After 60 minutes on ice, cells were washed and then stained with PE-conjugated goat anti-human IgG antibody (Southern Biotech Cat #2040-09, Birmingham, AL) in the presence of Fc block solution on ice for 30 minutes, and then washed twice with cold FACS buffer (2% FBS in PBS). Mouse anti-human MerTK-PE conjugated (Biolegend, Clone 590H11G1E3) or anti-mouse MerTK-PE conjugated (ThermoFisher, Clone DS5MMER) antibodies were used as positive controls. Stained cells were acquired on a BD FACS Canto II cytometer and the mean fluorescence intensity (MFI) was calculated with FlowJo.

MFI [MFI]	Binder
40200	B1
19000	B2
14100	B3
39000	B4
42800	B5

Molecular target: T1, recombinant cynomolgus MerTK …
Test: SPR Carterra LSA, Ab immobilised
Summary of the method: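 Surface plasmon resonance on a Carterra LSA measured affinity of immobilized antibodies for human, cynomolgus or mouse MerTK ectodomain diluted in HBS-TE with 0.5 mg/ml BSA. Analytes flowed over the full array, surfaces were regenerated with Protein A/G Elution Buffer plus 1M NaCl or 10 mM Glycine pH 2.5, and spots binding under 25 RU were discarded before kinetic fitting.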

Kd [nM]	Binder
80	B1
1600	B2
34	B3
48	B4
38	B5
